Our source for the % CcmE bound with heme and % holoCcmE bound with heme values is publication PMC3580838.

Where only a bound is given, the exact number is not on record here.

The target in assay [1] is GST:CcmC(H60A/H184A) (UniProt P0ABM1). The experiment in a line: pull-down.
The target in assay [2] is GST:CcmC(W^5A/D126A) (UniProt P0ABM1). The assay is described as follows: pull-down.

“CcmE (from UniProt P69490 30-159) (natural protein)”: the % CcmE bound with heme in assay [1] and in assay [2] was less than 4% in each case. Besides, the % holoCcmE bound with heme in assay [1] and in assay [2] was less than 3% in each case.
